From article PMC6212786 (Nucleic Acids Research, 2018)

B1: T4LΔ(222–247)GS: internally truncated construct with a di-amino acid Gly-Ser substituted for residues 222–247 (protein)
chain: MILKILNEIASIGSTKQKQAILEKNKDNELLKRVYRLTYSRGLQYYIKKWPKPGIATQSFGMLTLTDMLDFIEFTLATRKLTGNAAIEELTGYITDGKKDDVEVLRRVMMRDLECGASVSIANKVWPGLIPEQPQMLASSYDEKGINKNIKFPAFAQLKADGARCFAEVRGDELDDVRLLSRAGNEYLGLDLLKEELIKMTAEARQIHPEGVLIDGELVYHGSAEVAESRTASNGIANKSLKGTISEKEAQCMKFQVWDYVPLVEIYSLPAFRLKYDVRFSKLEQMTSGYDKVILIENQVVNNLDEAKVIYKKYIDQGLEGIILKNIDGLWENARSKNLYKFKEVIDVDLKIVGIYPHRKDPTKAGGFILESECGKIKVNAGSGLKDKAGVKSHELDRTRIMENQNYYIGKILECECNGWLKSDGRTDYVKLFLPIAIRLREDKTKANTFEDVFGDFHEVTGL
modifications: left off: His6 (LEHHHHHH), C-terminal, kept
B2: E. coli LigA: E. coli NAD+-dependent DNA ligase (protein, UniProt P15042 1-671, looked up)
DNA ligase: MESIEQQLTELRTTLRHHEYLYHVMDAPEIPDAEYDRLMRELRELETKHPELITPDSPTQRVGAAPLAAFSQIRHEVPMLSLDNVFDEESFLAFNKRVQDRLKNNEKVTWCCELKLDGLAVSILYENGVLVSAATRGDGTTGEDITSNVRTIRAIPLKLHGENIPARLEVRGEVFLPQAGFEKINEDARRTGGKVFANPRNAAAGSLRQLDPRITAKRPLTFFCYGVGVLEGGELPDTHLGRLLQFKKWGLPVSDRVTLCESAEEVLAFYHKVEEDRPTLGFDIDGVVIKVNSLAQQEQLGFVARAPRWAVAFKFPAQEQMTFVRDVEFQVGRTGAITPVARLEPVHVAGVLVSNATLHNADEIERLGLRIGDKVVIRRAGDVIPQVVNVVLSERPEDTREVVFPTHCPVCGSDVERVEGEAVARCTGGLICGAQRKESLKHFVSRRAMDVDGMGDKIIDQLVEKEYVHTPADLFKLTAGKLTGLERMGPKSAQNVVNALEKAKETTFARFLYALGIREVGEATAAGLAAYFGTLEALEAASIEELQKVPDVGIVVASHVHNFFAEESNRNVISELLAEGVHWPAPIVINAEEIDSPFAGKTVVLTGSLSQMSRDDAKARLVELGAKVAGSVSKKTDLVIAGEAAGSKLAKAQELGIEVIDEAEMLRLLGS
B3: T4 DNA ligase: Full-length wild-type T4 DNA ligase (residues 1–487) (protein, UniProt P00970 1-487, looked up)
chain: MILKILNEIASIGSTKQKQAILEKNKDNELLKRVYRLTYSRGLQYYIKKWPKPGIATQSFGMLTLTDMLDFIEFTLATRKLTGNAAIEELTGYITDGKKDDVEVLRRVMMRDLECGASVSIANKVWPGLIPEQPQMLASSYDEKGINKNIKFPAFAQLKADGARCFAEVRGDELDDVRLLSRAGNEYLGLDLLKEELIKMTAEARQIHPEGVLIDGELVYHEQVKKEPEGLDFLFDAYPENSKAKEFAEVAESRTASNGIANKSLKGTISEKEAQCMKFQVWDYVPLVEIYSLPAFRLKYDVRFSKLEQMTSGYDKVILIENQVVNNLDEAKVIYKKYIDQGLEGIILKNIDGLWENARSKNLYKFKEVIDVDLKIVGIYPHRKDPTKAGGFILESECGKIKVNAGSGLKDKAGVKSHELDRTRIMENQNYYIGKILECECNGWLKSDGRTDYVKLFLPIAIRLREDKTKANTFEDVFGDFHEVTGL
modifications: full-length
B4: gp44/62: T4 clamp-loader prepared by co-expressing gp44 and gp62 (protein, UniProt P04526 1-319; P04527 1-187, looked up)
Sliding-clamp-loader large …: MITVNEKEHILEQKYRPSTIDECILPAFDKETFKSITSKGKIPHIILHSPSPGTGKTTVAKALCHDVNADMMFVNGSDCKIDFVRGPLTNFASAASFDGRQKVIVIDEFDRSGLAESQRHLRSFMEAYSSNCSIIITANNIDGIIKPLQSRCRVITFGQPTDEDKIEMMKQMIRRLTEICKHEGIAIADMKVVAALVKKNFPDFRKTIGELDSYSSKGVLDAGILSLVTNDRGAIDDVLESLKNKDVKQLRALAPKYAADYSWFVGKLAEEIYSRVTPQSIIRMYEIVGENNQYHGIAANTELHLAYLFIQLACEMQWK
Sliding-clamp-loader small …: MSLFKDDIQLNEHQVAWYSKDWTAVQSAADSFKEKAENEFFEIIGAINNKTKCSIAQKDYSKFMVENALSQFPECMPAVYAMNLIGSGLSDEAHFNYLMAAVPRGKRYGKWAKLVEDSTEVLIIKLLAKRYQVNTNDAINYKSILTKNGKLPLVLKELKGLVTDDFLKEVTKNVKEQKQLKKLALEW

Columns and labels:
DNA substrate = experiment: in vitro DNA ligation activity; type: biochemical
[1] = test system: nicked substrates containing a single 5′-terminal ribonucleotide adjacent to the nick; conditions: cited from earlier work

Molecule	ligation activity on nicked substrate with 5′-terminal ribonucleotide [1]	further results
B1		in vitro DNA ligation activity relative to wild-type (DNA substrate; vs wild-type T4 DNA ligase, Supplementary Figures S8, S10): comparable or slightly better
B2	ligates this substrate as well as it does a regular DNA substrate	
B3	better ligation activity on the same substrate, although a fraction of the adenylated intermediate fail to complete the nick-sealing reaction	
B4		DNA ligase activity of the preparation (DNA substrate; control of gp45 and gp44/62 preparations, data not shown): no detectable DNA ligase activity
